Experimental data published in patent US20110165624A1 (REGENTS OF THEUNIVERSITY OF MICHIGAN, published 2011).

Target: the molecule itself
Test: size exclusion chromatography, Superdex 75, non-denaturing; self-association (dimerization)

B1: Mocr protein (monomeric Ocr, F53R and V77D) as produced from the pMCSG7 vector (pMocr) (other)
chain: MHHHHHHSSGVDLAMSNMTYNNVFDHAYEMLKENIRYDDIRDTDDLHDAIHMAADNAVPHYYADIRSVMASEGIDLEFEDSGLMPDTKDDIRILQARIYEQLTIDLWEDAEDLLNEYLEEVEEYEEDEEGTENLYFQSNICSG
notes: […]; The predicted molecular weight is 16.7 kDa; also called synthetic Mocr
B1: no binding.
